The source of these data is patent publication US9844563B2, “Compositions, kits, and methods to induce acquired cytoresistance using stress protein inducers” (FRED HUTCHINSON CANCER RESEARCH CENTER, priority 2014, dated 2017).

The subject of series [1] is heme oxygenase 1 (HO-1). Nature of the series: Renal cortical induction of HO-1 by FeS, SnPP and B12 (ELISA, RT-PCR). It is filed as in vivo, mice. As to the method:
Effects of FeS, SnPP, and B12 on renal cortical induction of heme oxygenase 1 (HO-1). The following experiments assessed the effects of FeS, SnPP, and B12 on the possible induction of the cytoprotective protein HO-1. To this end, mice were injected with each of these agents, as noted above. Either 4 or 18 hrs later, they were anesthetized and the kidneys were removed through a midline abdominal incision. The renal cortices were dissected on ice and then extracted for protein and mRNA. The samples were then assayed for HO-1 protein by ELISA, and HO-1 mRNA by RT-PCR, factored by GAPDH levels. Five normal mice provided control values.
(ELISA stands for enzyme-linked immunosorbent assay.)

Series [2] is described as follows: Maleate model of AKI (FeS, SnPP, FeS+SnPP). It is filed as in vivo, mice. The conditions noted are these: IV 1 mg FeS and/or 1 μmole SnPP 18 hrs before IP Na maleate 800 mg/Kg; 18 hrs later. From the text: Effects of Fe sucrose (FeS)/tin protoporphyrin (SnPP) on AKI severity. Maleate model of AKI. When injected into rodents, maleate undergoes relatively selective proximal tubule cell uptake via organic anion transporters. Once intracellular accumulation occurs, maleate is a preferred substrate for succinyl-CoA:3-oxoacid CoA transferase. […] Ample levels of CoA are essential for fatty acid “activation”, allowing for their subsequent metabolism through the Krebs cycle, yielding ATP. In the absence of this process, proximal tubule ATP depletion and cell injury result. Additionally, maleate conjugates the sulfhydryl group of glutathione (GSH), culminating in GSH depletion and potential oxidant tubular stress.
The following experiment tested whether FeS, SnPP or combined FeS+SnPP can mitigate this form of acute kidney injury (AKI). Twenty seven mice were subjected to 200 μL IV tail injections of one of the following: 1) vehicle (phosphate buffered saline, PBS; n, 10); 2) 1 mg FeS (American Regent (Shirley, N.Y.; n, 3); 3) 1 μmole SnPP (Frontier Scientific, Logan, Utah; n 7), or FeS+SnPP, n, 7). Eighteen hrs later, all mice received an IP injection of Na maleate (800 mg/Kg; in 500 ul of PBS). […] The severity of kidney injury was assessed by determining plasma blood urea nitrogen (BUN) and plasma creatinine (PCr) concentrations.

The subject of series [3] is HK-2 cells. Nature of the series: HK-2 cell injury by MTT assay. Format: cell-based. The note with it: equimolar Na nitrite added to 10 mg/ml myoglobin, 18 hr incubation. Here is the method: HK-2 cells (a proximal tubule cell line derived from normal human kidney) were incubated in keratinocyte serum free medium either under normal (control) conditions or in the presence of 10 mg/mL horse skeletal muscle myoglobin or nitrited myoglobin (produced by equimolar Na nitrite addition to 10 mg/ml myoglobin). After 18 hr incubations, the severity of cell injury (% cell death) was assessed by MTT assay. Myoglobin induced 40% cell death (40% decrease in MTT cell uptake), compared to control incubated cells. Nitrite binding to myoglobin reduced cell death by 75%. Thus, nitrite binding is able to reduce myoglobin's cytotoxic effects.
Background: Formazan colour is commonly taken as a measure of viable cells.

The nature of series [4]: Serum creatinine after 2 hr subcutaneous infusion of N-myoglobin (constant SnPP). Format: in vivo, mice. The note with it: 2 hr subcutaneous infusion 1, 3, 6, 12, or 25 mg/Kg, SnPP constant 1 μmole; 18 hrs later. Here is the method: Mice were subjected to a 2 hr subcutaneous infusion of 1, 3, 6, 12, or 25 mg/Kg of nitrited myoglobin (holding SnPP at a constant dose of 1 μmole). Eighteen hrs later, potential renal injury was assessed by measuring serum creatinine concentrations.
An obvious concern by applying this prophylactic strategy to patients is potential renal and/or extrarenal toxicities. […] Furthermore, it was previously documented in a cell culture system that nitrite addition markedly reduces myoglobin's cytotoxic effects by 75% (unpublished data, 2014). To assess the potential in vivo margin of safety for N-Mgb+SnPP (see Supplemental FIGs.), the maximal amount of N-Mgb that could be given to mice before nephrotoxicity was observed was tested. Up to 25 times the employed N-Mgb dose (with a constant SnPP dose) could be administered (over 2 hours) without induction of nephrotoxicity (normal BUN and creatinine, 18 hours later).

Series [5] concerns HO-1. Briefly: Renal cortical HO-1 mRNA (RT-PCR) and protein (ELISA) after N-Mgb, SnPP or both. It is filed as in vivo, mice. As to the method: (§1) Thirty-two mice were divided into 4 equal groups: (1) control mice; (2) mice treated with 1 mg of N-Mgb injection (as a bolus through the tail vein); (3) mice treated with […] of SnPP (via tail vein); and (4) mice treated with combined N-Mgb 1 SnPP. After either 4 hours (n=16) or 18 hours (n=16), the mice were deeply anesthetized with pentobarbital (50 mg/kg), the abdomen was opened through a midline abdominal incision, and the kidneys were removed. To determine potential effects on extrarenal organs, a liver lobe and the heart were also removed. The tissues were iced and then extracted for protein and RNA (RNeasy Plus Mini; Qiagen, Valencia, Calif.) and subjected to enzyme linked immunosorbent assay (ELISA) and reverse transcriptase polymerase chain reaction (RT-PCR) for HO-1, haptoglobin, and IL-10 protein and messenger RNAs (mRNAs). Zager et al. J Am Soc Nephrol 2014;25:998-1012; Zager et al. Am J Physiol 2012;303:F139-48. As an assessment of renal function, control mice and the 18 hour after N-Mgb+SnPP—treated mice had blood urea nitrogen (BUN) and plasma creatinine levels measured. Additionally, transverse 10% formalin fixed kidney sections ([…]) were cut and stained with hematoxylin and eosin (H&E) and periodic acid Schiff (PAS) to further assess potential injury.

Series [6] has as its system Haptoglobin. Nature of the series: Renal cortical haptoglobin mRNA and protein after N-Mgb, SnPP or both. Format: in vivo, mice. Here is the method: as §1
Series [7] has as its system IL-10. Briefly: Renal cortical IL-10 mRNA and protein after N-Mgb, SnPP or both. Format: in vivo, mice. As to the method:
as §1

Series [8] has as its system HO-1. Briefly: Liver HO-1 mRNA and protein after N-Mgb, SnPP or both. It is filed as in vivo, mice. Here is the method:
as §1

The subject of series [9] is Haptoglobin. Briefly: Liver haptoglobin mRNA and protein after N-Mgb, SnPP or both. It is filed as in vivo, mice. As to the method:
as §1

Series [10] deals with IL-10. Briefly: Liver IL-10 mRNA and protein after N-Mgb, SnPP or both. Format: in vivo, mice. As to the method:
as §1

Series [11] concerns HO-1. Nature of the series: Cardiac HO-1 mRNA and protein after N-Mgb, SnPP or both. Format: in vivo, mice. As to the method: as §1
The subject of series [12] is Haptoglobin. Nature of the series: Cardiac haptoglobin mRNA and protein after N-Mgb, SnPP or both. It is filed as in vivo, mice. As to the method:
as §1

In series [13] the test system is IL-10. Nature of the series: Cardiac IL-10 mRNA and protein after N-Mgb, SnPP or both. It is filed as in vivo, mice. Here is the method:
as §1

A short description of series [14]: Glycerol model of rhabdomyolysis-induced AKI. Format: in vivo, mice. The note with it: IV pretreatment 18 hours before glycerol; 18 hours after glycerol. As to the method:
Assessments of cytoresistance. Glycerol model of rhabdomyolysis-induced AKI. Twenty mice were divided into 4 equal groups (controls, mice treated with N-Mgb, SnPP, and mice treated with N-Mgb+SnPP tail vein injections) as described previously. 18 hours later, the mice were briefly anesthetized with isoflurane and immediately injected with 9 mL/kg of 50% glycerol, administered in equally divided doses into each hind limb. At 18 hours after glycerol injection, the mice were anesthetized with pentobarbital, the abdomen was opened, a blood sample for BUN and creatinine assessments was obtained from the vena cava, and the kidneys were resected. The control post-glycerol group and the N-Mgb+SnPP—pretreated glycerol group had kidney sections stained with H&E.
Calculations and statistics. All values are given as the mean […] standard error of the mean. Statistical comparisons were made by unpaired Student's t test. If multiple comparisons were made, the Bonferroni correction was applied. The severity of renal histologic injury in the glycerol AKI model was graded on a […] (least to most severe tubular necrosis and cast formation observed). The histologic results were compared by Wlcoxon rank sum test. Statistical significance was taken as a P value of <0.05.

The mark [15] stands for this setting: renal cortex, 4 h after Rx treatment.

Turning to cyanocobalamin [vitamin B12], the “renal cortical HO-1 protein levels” value is recorded as “marked HO-1 protein increases” in series [1] (4 hr post IV injection) and “persists for 18 hrs” in series [1] (18 hr time point).

On to Fe sucrose [FeS], for which the “reductions in BUN/PCr concentrations, maleate-induced AKI” value in series [2] is recorded as “Neither SnPP alone nor FeS alone significantly altered the severity of renal injury”. Further, the “renal cortical HO-1 protein levels” value in series [1] (4 hr post IV injection) is on record as “marked HO-1 protein increases”; in [1] (18 hr time point), “remained elevated at the 18 hr time point, particularly in the case of FeS administration”; in series [1] (18 hr time point, listed as Fe sucrose) it was “persists for 18 hrs”.

B1: N-Mgb: horse skeletal muscle myoglobin converted into a nitrited form by equimolar Na nitrite (protein, UniProt P68082 2-154, looked up)
Myoglobin: GLSDGEWQQVLNVWGKVEADIAGHGQEVLIRLFTGHPETLEKFDKFKHLKTEAEMKASEDLKKHGTVVLTALGGILKKKGHHEAELKPLAQSHATKHKIPIKYLEFISDAIIHVLHSKHPGDFGADAQGAMTKALELFRNDIAAKYKELGFQG
modifications: nitrited with sodium nitrite
As for B1, the “reduction of myoglobin-induced cell death by nitrite binding” value in [3] amounted to 75%. For the same molecule, the “serum creatinine concentrations (potential renal injury)” value in series [4] is reported as “No significant increase”. Moreover, the “increase in renal HO-1 mRNA” value in series [5] (4 hours after IV injection, vs controls) is listed as “only modest increases”. Besides, in series [5] (18 h after Rx treatment), the “Kidney mRNA cortex HO-1” value stood at 0.58 ± 0.18 and the “Kidney protein HO-1” value worked out at 30 ± 6. In addition, the “increase in renal HO-1 protein” value in series [5] (18 hours post-treatment, vs control values) is given as “only relatively small HO-1 protein increases”. Also, in series [5] (setting [15]), the “Kidney HO-1 protein” value came out at 36.1 ± 2.9 and the “Kidney mRNA HO-1” value is 3.38 ± 0.38. In addition, in series [6] (18 h after Rx treatment), the “Kidney mRNA cortex Haptoglobin” value is recorded as 0.24 ± 0.04 and the “Kidney protein Haptoglobin” value was determined as 183.8 ± 20.4. Further, the “increase in renal cortical haptoglobin protein levels” value in series [6] (18 hours after injections) is “comparably increased”. In addition, in series [6] (setting [15]), the “Kidney Haptoglobin (protein)” value was 17.6 ± 1^ and the “Kidney mRNA Haptoglobin” value came out at 1.94 ± 0.31. For the same molecule, in series [7] (4 hours after injection), the “increase in renal IL-10 mRNA” value is listed as “either minimal or no impact”. For the same molecule, in [7] (18 h after Rx treatment), the “Kidney mRNA cortex IL-10” value came out at 0.43 ± 0.10 and the “Kidney protein IL-10” value amounted to 292 ± 54. Also, the “increase in renal IL-10 protein” value in series [7] (18 hours after injection) is recorded as “absence of IL-10 protein increases”. Moreover, in [7] (setting [15]), the “Kidney IL-10 (protein)” value turned out to be 265 ± 54 and the “Kidney mRNA IL-10” value came to 1.45 ± 0.6. Further, in series [8] (4 h after Rx treatment), the “Liver mRNA HO-1” value was found to be 1.83 ± 0.33 and the “Liver protein HO-1 protein” value came to 17 ± 2. In series [8] (18 h after Rx treatment), the “Liver mRNA HO-1” value was found to be 0.82 ± 0.07 and the “Liver protein HO-1 protein” value is 14.9 ± 0.3. In [9] (4 h after Rx treatment), the “Liver mRNA Haptoglobin” value is 0.98 ± 0.1 and the “Liver protein Haptoglobin” value was determined as 359.5 ± 39.6. Moreover, in [9] (18 h after Rx treatment), the “Liver mRNA Haptoglobin” value was found to be 0.91 ± 0.07 and the “Liver protein Haptoglobin” value was determined as 358.8 ± 32.8. For the same molecule, in [10] (4 h after Rx treatment), the “Liver mRNA IL-10” value is reported as 0.67 ± 0.46 and the “Liver protein IL-10” value came out at 286 ± 32. Also, in [10] (18 h after Rx treatment), the “Liver mRNA IL-10” value is reported as 0.06 ± 0.02 and the “Liver protein IL-10” value turned out to be 5988 ± 549. In series [11] (4 h after Rx treatment), the “Cardiac Protein HO-1” value was 1.64 ± 0.19 and the “Cardiac mRNA HO-1” value is 0.09 ± 0.01. The “Cardiac mRNA HO-1” value in [11] (18 h after Rx treatment) is recorded as 0.08 ± 0.01. Moreover, in [12] (4 h after Rx treatment), the “Cardiac mRNA Haptoglobin” value turned out to be 0.75 ± 0.10 and the “Cardiac protein Haptoglobin” value was determined as 40.4 ± 8.6. For the same molecule, in series [12] (18 h after Rx treatment), the “Cardiac mRNA Haptoglobin” value came out at 0.53 ± 0.21 and the “Cardiac protein Haptoglobin” value is 249.6 ± 15.0. In series [13] (4 h after Rx treatment), the “Cardiac mRNA IL-10” value was determined as 0.86 ± 0.11 and the “Cardiac protein IL-10” value amounted to 21 ± 12. In [13] (18 h after Rx treatment), the “Cardiac mRNA IL-10” value came out at 0.67 ± 0.10 and the “Cardiac protein IL-10” value is recorded as 14.5 ± 10^. For the same molecule, the “protection against glycerol-induced AKI (BUN/creatinine levels)” value in series [14] is reported as “modest protection”.
